Test [1] concerns the target (pro)renin receptor (PRR), mouse (mouse) (UniProt Q9CYN9). The test can be described thus: cell-based or functional assay.
Test [2] addresses (pro)renin receptor (PRR) on mpkCCD cells (UniProt Q9CYN9). Nature of the test: cell-based or functional assay.

(pro)renin receptor (PRR), mouse (mouse), sequence (Q9CYN9 18-350): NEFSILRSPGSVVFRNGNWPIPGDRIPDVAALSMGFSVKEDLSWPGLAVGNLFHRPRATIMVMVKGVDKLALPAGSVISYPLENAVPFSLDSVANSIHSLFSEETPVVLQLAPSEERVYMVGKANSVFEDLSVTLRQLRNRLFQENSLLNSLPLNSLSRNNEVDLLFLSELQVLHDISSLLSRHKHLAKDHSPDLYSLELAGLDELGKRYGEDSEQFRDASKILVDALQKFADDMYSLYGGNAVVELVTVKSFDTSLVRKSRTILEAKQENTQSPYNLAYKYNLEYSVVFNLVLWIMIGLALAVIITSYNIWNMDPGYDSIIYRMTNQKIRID
(pro)renin receptor (PRR) on mpkCCD cells, sequence (Q9CYN9 18-350 limits assumed): as the sequence (Q9CYN9 18-350) above

With “mouse prorenin (from UniProt P06281 22-402) (ligand)”, in test [1], the pressor response (delta MAP) to ICV mouse prorenin alone in C57BI/6J mice stood at 31.3 mmHg, the pressor response (delta MAP) to ICV mouse prorenin in neuron-specific PRR knockout (Nefh-PRR) mice came out at 5 mmHg and the pressor response (delta MAP) to ICV mouse prorenin in wild-type mice was found to be 41 mmHg.
In test [2], “prorenin (cell culture experiments of Example 13) (ligand)” had an ENaC activity (Ieq) in mpkCCD cells, 10 nM for 5 min (control group 1.17+0.05 µA/cm2) of 3.16 µA/cm2.
Still for that read-out and setting: for “renin (cell culture experiments of Example 13) (enzyme)” the value was 1.58 µA/cm2.

For the origin of these results see patent US20150025013A1.
